Results as given in paper PMC11638003, “Plant phytochrome interactions decode light and temperature signals” (The Plant Cell, 2024).
No end group written: not given here.

B1: Arabidopsis thaliana phytochrome B, N-terminal fragment encompassing the N-terminal extension (NTE) and the photosensory core module (AtPhyB PCM) (domain or fragment, UniProt P14713 1-651, looked up)
chain: MVSGVGGSGGGRGGGRGGEEEPSSSHTPNNRRGGEQAQSSGTKSLRPRSNTESMSKAIQQYTVDARLHAVFEQSGESGKSFDYSQSLKTTTYGSSVPEQQITAYLSRIQRGGYIQPFGCMIAVDESSFRIIGYSENAREMLGIMPQSVPTLEKPEILAMGTDVRSLFTSSSSILLERAFVAREITLLNPVWIHSKNTGKPFYAILHRIDVGVVIDLEPARTEDPALSIAGAVQSQKLAVRAISQLQALPGGDIKLLCDTVVESVRDLTGYDRVMVYKFHEDEHGEVVAESKRDDLEPYIGLHYPATDIPQASRFLFKQNRVRMIVDCNATPVLVVQDDRLTQSMCLVGSTLRAPHGCHSQYMANMGSIASLAMAVIINGNEDDGSNVASGRSSMRLWGLVVCHHTSSRCIPFPLRYACEFLMQAFGLQLNMELQLALQMSEKRVLRTQTLLCDMLLRDSPAGIVTQSPSIMDLVKCDGAAFLYHGKYYPLGVAPSEVQIKDVVEWLLANHADSTGLSTDSLGDAGYPGAAALGDAVCGMAVAYITKRDFLFWFRSHTAKEIKWGGAKHHPEDKDDGQRMHPRSSFQAFLEVVKSRSQPWETAEMDAIHSLQLILRDSFKESEAAMNSKVVDGVVQPCRDMAGEQGIDELGA
modifications: phycocyanobilin chromophore, covalently bound
notes: Phytochrome B, Arabidopsis thaliana, GenBank CAA35222.1; N-terminal fragment with the NTE and the PCM (nPAS-GAF-PHY), lacking PAS1, PAS2 and the HKRD; source: E. coli LOBSTR, purified (Co2+-NTA IMAC, anion exchange); plasmid also encodes Synechocystis sp. heme oxygenase 1 and PcyA
B2: PIF3-mScarlet-I (Arabidopsis PIF3 residues 1 to 100 fused to mScarlet-I) (domain or fragment, Arabidopsis thaliana, UniProt O80536 1-100, looked up)
chain: MPLFELFRLTKAKLESAQDRNPSPPVDEVVELVWENGQISTQSQSSRSRNIPPPQANSSRAREIGNGSKTTMVDEIPMSVPSLMTGLSQDDDFVPWLNHH
notes: mScarlet-I: GenBank APD76536; also called AtPIF3; source: E. coli LOBSTR, purified (IMAC, SENP2 cleavage, second IMAC, optionally anion exchange); not shown: His6-SUMO, N-terminal, cleaved
B3: PIF6-mScarlet-I (Arabidopsis PIF6 residues 1 to 100 fused to mScarlet-I) (domain or fragment, Arabidopsis thaliana, UniProt Q8L5W7 1-100, looked up)
chain: MMFLPTDYCCRLSDQEYMELVFENGQILAKGQRSNVSLHNQRTKSIMDLYEAEYNEDFMKSIIHGGGGAITNLGDTQVVPQSHVAAAHETNMLESNKHVD
notes: mScarlet-I: GenBank APD76536; also called AtPIF6; source: E. coli LOBSTR, purified (IMAC, SENP2 cleavage, second IMAC, optionally anion exchange); not shown: His6-SUMO, N-terminal, cleaved
B4: P3A-mScarlet-I (Arabidopsis PIF3 residues 14 to 55, APB.A portion, fused to mScarlet-I) (domain or fragment, Arabidopsis thaliana, UniProt O80536 14-55, looked up)
chain: LESAQDRNPSPPVDEVVELVWENGQISTQSQSSRSRNIPPPQ-{mScarlet‑I}
notes: mScarlet-I: GenBank APD76536; source: E. coli LOBSTR, purified (IMAC, SENP2 cleavage, second IMAC, optionally anion exchange); not shown: His6-SUMO, N-terminal, cleaved; mScarlet-I, C-terminal, kept

Experiments:
P3A or PIF3 = experiment: FRET or BRET; as a5 (association and dissociation kinetics after a red-light pulse) at several temperatures up to 30 °C; values told for 30 °C or for 30 °C against 15 °C
[1] = biological target: T1, P6A-mScarlet-I (Arabidopsis PIF6 residues 14 to 53, APB.A portion, fused to mScarlet-I) (Arabidopsis thaliana, UniProt Q8L5W7 14-53); experiment: FRET or BRET; equilibrium titration: 20 nM P6A-mScarlet-I with 0 to 2,000 nM AtPhyB PCM at 15 °C after red light (658 nm); 50 mM Tris/HCl pH 8.0, 20 mM NaCl, 100 μg/mL BSA; single-site binding isotherm; conditions: both partners purified
T1 construct: mScarlet-I: GenBank APD76536; source: E. coli LOBSTR, purified (IMAC, SENP2 cleavage, second IMAC, optionally anion exchange); not shown: His6-SUMO, N-terminal, cleaved; mScarlet-I, C-terminal, kept
T1 chain (looked up): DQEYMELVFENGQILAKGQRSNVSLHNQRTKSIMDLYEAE

[2] = biological target: T1, P6A-mScarlet-I (Arabidopsis PIF6 …); experiment: FRET or BRET; as a5 (association and dissociation kinetics after a red-light pulse) at several temperatures up to 30 °C; values told for 30 °C or for 30 °C against 15 °C; conditions: both partners purified
[3] = biological target: B3; experiment: as above; conditions: both partners purified
[4] = biological target: B2; experiment: FRET or BRET; dissociation kinetics at 15 °C under continuous far-red light (733 nm, 42 mW cm^-2) after saturating red light; same samples as a5; consecutive model (Pfr to Pr reversion, then dissociation); kaR fixed at 0 (Pr state); conditions: both partners purified
[5] = biological target: T1, P6A-mScarlet-I (Arabidopsis PIF6 …); experiment: as above; conditions: both partners purified
[6] = biological target: B3; experiment: as above; conditions: both partners purified
[7] = biological target: B4; experiment: as above; conditions: both partners purified
[8] = biological target: B1; experiment: FRET or BRET; association kinetics at 15 °C after a 0.5-s pulse of red light (658 nm, 69 mW cm^-2, optical shutter); 20 nM PIF-mScarlet-I variant with 500 to 2,000 nM AtPhyB PCM, or 30 nM P6A-mScarlet-I with 750 to 2,500 nM AtPhyB (1-982); 50 mM Tris/HCl pH 8.0, 20 mM NaCl; pseudo-first-order, linear fit of koFR against the AtPhyB concentration; kaFR corrected for the Pfr fraction; Kd calculated from kdFR and kaFR …; conditions: both partners purified

| fold change of kdFR, 30 °C against 15 °C [2] | Kd [8] | koff [8] | kon [8] | also measured | Molecule |
| --- | --- | --- | --- | --- | --- |
|  |  |  |  | fold reduction of the affinity, 30 °C against 15 °C (P3A or PIF3): 1.4 to 2.6 fold | Arabidopsis thaliana phytochrome B, N-terminal fragment encompassing the N-terminal extension (NTE) and the photosensory core module (AtPhyB PCM) (from UniProt P14713 1-651) (domain or fragment) |
| 6.5 fold |  |  |  | KD on the total AtPhyB concentration (not corrected for the Pfr fraction) [1]: 180 ± 110 nM; fold change of kaFR, 30 °C against 15 °C [2]: 1.3 fold; fold reduction of the affinity, 30 °C against 15 °C [3]: ~5 fold; kdR (dissociation rate constant of the complex in the Pr state) [4]: 1.6 s⁻¹; kdR (dissociation rate constant of the complex in the Pr state) [5]: 2.5 s⁻¹; kdR (dissociation rate constant of the complex in the Pr state) [6]: 0.26 s⁻¹; kdR (dissociation rate constant of the complex in the Pr state) [7]: 1.9 s⁻¹ | B1 |
|  | 308 ± 42 nM | 0.13 s⁻¹ | 430000 M⁻¹ s⁻¹ |  | B2 |
|  | 133 ± 55 nM | 0.07 s⁻¹ | 520000 M⁻¹ s⁻¹ |  | B3 |
| 5 fold |  |  |  | fold reduction of the affinity, 30 °C against 15 °C [2]: 3 fold | Arabidopsis thaliana phytochrome B residues 1 to 982, AtPhyB (1-982) (domain or fragment, UniProt P14713 1-982, looked up, phycocyanobilin chromophore, covalently bound, the oligomeric state is not measured directly here; also called AtPhyB982; source: E. coli LOBSTR, purified (Co2+-NTA IMAC, anion exchange); plasmid also encodes Synechocystis sp. heme oxygenase 1 and PcyA) MVSGVGGSGGGRGGGRGGEEEPSSSHTPNNRRGGEQAQSSGTKSLRPRSNTESMSKAIQQYTVDARLHAVFEQSGESGKSFDYSQSLKTTTYGSSVPEQQITAYLSRIQRGGYIQPFGCMIAVDESSFRIIGYSENAREMLGIMPQSVPTLEKPEILAMGTDVRSLFTSSSSILLERAFVAREITLLNPVWIHSKNTGKPFYAILHRIDVGVVIDLEPARTEDPALSIAGAVQSQKLAVRAISQLQALPGGDIKLLCDTVVESVRDLTGYDRVMVYKFHEDEHGEVVAESKRDDLEPYIGLHYPATDIPQASRFLFKQNRVRMIVDCNATPVLVVQDDRLTQSMCLVGSTLRAPHGCHSQYMANMGSIASLAMAVIINGNEDDGSNVASGRSSMRLWGLVVCHHTSSRCIPFPLRYACEFLMQAFGLQLNMELQLALQMSEKRVLRTQTLLCDMLLRDSPAGIVTQSPSIMDLVKCDGAAFLYHGKYYPLGVAPSEVQIKDVVEWLLANHADSTGLSTDSLGDAGYPGAAALGDAVCGMAVAYITKRDFLFWFRSHTAKEIKWGGAKHHPEDKDDGQRMHPRSSFQAFLEVVKSRSQPWETAEMDAIHSLQLILRDSFKESEAAMNSKVVDGVVQPCRDMAGEQGIDELGAVAREMVRLIETATVPIFAVDAGGCINGWNAKIAELTGLSVEEAMGKSLVSDLIYKENEATVNKLLSRALRGDEEKNVEVKLKTFSPELQGKAVFVVVNACSSKDYLNNIVGVCFVGQDVTSQKIVMDKFINIQGDYKAIVHSPNPLIPPIFAADENTCCLEWNMAMEKLTGWSRSEVIGKMIVGEVFGSCCMLKGPDALTKFMIVLHNAIGGQDTDKFPFPFFDRNGKFVQALLTANKRVSLEGKVIGAFCFLQIPSPELQQALAVQRRQDTECFTKAKELAYICQVIKNPLSGMRFANSLLEATDLNEDQKQLLETSVSCEKQISRIVGD |
|  | 322 ± 109 nM | 0.1 s⁻¹ | 310000 M⁻¹ s⁻¹ |  | B4 |
